This passage reports Kd results from patent US20220025008A1 (FAPON BIOTECH, published 2022).

Substitutions are numbered along the chain they refer to.

To fix the notation:
T1: Recombinant NT antigen (N-terminal pro-brain natriuretic peptide, NT-proBNP) (human, UniProt P16860 27-102)
T1 construct: domain: N-terminal pro-brain natriuretic peptide (NT-proBNP); also called recombinant NT protein; N-terminal pro-B-type natriuretic peptide
T1 sequence (looked up): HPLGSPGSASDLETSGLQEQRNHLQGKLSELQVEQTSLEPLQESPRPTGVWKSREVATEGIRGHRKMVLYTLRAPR

B1: Mutation 1-51 (antibody)
heavy: QVRLQESGPSQVKPAQTLSLTCAISGFSVTTYYIDWVRHTPGKPPEWLAQMTKDGNAVHNPTLRSRLSITRDTSKSQVFLKLTGVTTEDTAVYYCVRGLIDFGPGLLVTVSSASTTPPKVYPLTSCCGDTSSSIVTLGCLVSSYMPEPVTVTWNSGALTSGVHTFPAILQSSGLYSLSSVVTVPASTSGAQTFICNVAHPASSTKVDKRVEPGCPDPCKHCRCPPPELPGGPSVFIFPPKPKDTLTISGTPEVTCVVVDVGQDDPEVQFSWFVDNVEVRTARTKPREEQFNSTFRVVSALPIQHQDWTGGKEFKCKVHNEGLPAPIVRTISRTKGQAREPQVYVLAPPQEELSKSTLSVTCLVTGFYPDYIAVEWQKNGQPESEDKYGTTTSQLDADGSYFLYSRLRVDKNSWQEGDTYACVVMHEALHNHYTQKSISKPPGK
light: QAVLTQPSSVSRSLGQTVSITCSGSSDNVGFGDYVNWFQLIPGSAPKTLIFGAYSRIRGVPDRFSGSRSGNTATLTINSLQAEDEADYYCGSANSRNYVFGSGTRLTVLSQPKSAPSVTLFPPSKEELDTNKATVVCLISDFYPGSVNVVWKADGSTINQNVKTTQASKQSNSKYAASSYLTLTGSEWKSKSSYTCEVTHEGSTVTKTVKPSECS
B2: WT 1-8 (antibody, V domains shown)
VH: QVRLQESGPSQVKPAQTLSLTCAISGPSLTTYYVDWVRHTPGKPPEWLAQMTKDANAVHQPTVRSRLSITRDTSKSQVFLKLTGVTTEDTAVYYCVKGIIDWGPGLLVTVSS
V domain: QAVLTQPSSVSRSLGQTVSITCSGSSDNVGPGDYINWFQLIPGSAPKTLIFAAYSRVRGVPDRFSGSRSGNTATLTINSLQAEDEADYYCGSPNSRNYVWGSGTRLTVLS
B3: WT 1-3 (antibody)
heavy: B1 heavy with F27P, V29I, I34L, G55A, N60Q, L63I, R97K
light: B1 light with F31P, G52A, Y54T, F100W
B4: WT 1-1 (antibody, V domains shown)
VH: B2 VH with L29V, V34I, Q60N, V63I, I99V
V domain: B2 V domain with V57I, P93A
B5: WT 1-2 (antibody, V domains shown)
VH: B2 VH with V34I, V63L, I99V
V domain: B2 V domain with I35L, Y54S, V57I
B6: Mutation 1-2 (antibody, V domains shown)
VH: B2 VH with P27F, L29I, A55G, V63L, K97R, I99L
VL: QAVLTQPSSVSRSLGQTVSITCSGSSDQVGFGDYINWFQLIPGSAPKTLIFGATSRVRGVPDRFSGSRSGNTATLTINSLQAEDEADYYCGSANSRGGYVFGSGTRLTVLS
B7: WT 1-9 (antibody, V domains shown)
VH: B2 VH with L29V, V34I, V63L, I99L
V domain: B6 VL with Q28N, F31P, I35V, G52A, T54Y, V57L, A93G, F101W
B8: Mutation 1-24 (antibody, V domains shown)
VH: B2 VH with P27F, L29V, V34I, A55G, V63I, K97R
VL: B6 VL with I35V, T54S, V57I, A93P
B9: Mutation 1-28 (antibody, V domains shown)
VH: B2 VH with P27F, L29I, V34L, A55G, K97R, I99V
VL: B6 VL with Q28N, I35L, T54S, V57L, A93G
B10: Mutation 1-26 (antibody, V domains shown)
VH: B2 VH with P27F, L29V, A55G, V63L, K97R, I99L
VL: B6 VL with I35V, T54S
B11: Mutation 1-4 (antibody, V domains shown)
VH: B2 VH with P27F, V34L, A55G, K97R, I99V
VL: B6 VL with Q28N, I35L, T54Y, V57L, A93G
B12: Mutation 1-16 (antibody, V domains shown)
VH: B2 VH with P27F, L29V, V34L, A55G, K97R, I99V
VL: B6 VL with Q28N, I35L, V57L, A93G
B13: Mutation 1-21 (antibody)
heavy: B1 heavy with V29L, N60Q
light: QAVLTQPSSVSRSLGQTVSITCSGSSDQVGFGDYINWFQLIPGSAPKTLIFGAYSRIRGVPDRFSGSRSGNTATLTINSLQAEDEADYYCGSANSRGGYVFGSGTRLTVLSQPKSAPSVTLFPPSKEELDTNKATVVCLISDFYPGSVNVVWKADGSTINQNVKTTQASKQSNSKYAASSYLTLTGSEWKSKSSYTCEVTHEGSTVTKTVKPSECS
B14: Mutation 1-14 (antibody, V domains shown)
VH: B2 VH with P27F, A55G, V63L, K97R, I99L
VL: B6 VL with T54Y
B15: Mutation 1-12 (antibody, V domains shown)
VH: B2 VH with P27F, V34I, A55G, V63I, K97R
VL: B6 VL with I35V, T54Y, V57I, A93P

This assay addresses T1, Recombinant NT antigen (N-terminal …). Nature of the assay: indirect ELISA, KD calculated from half-max OD at 4 coating concentrations. On the procedure: Recombinant NT antigen was diluted with coating solution to 1 μg/ml a microplate overnight at 4° C.; which was washed twice with washing solution and patted dry on the next day; with addition of blocking solution (20% BSA+80% PBS) at 120 μL per well at 37° C. for 1 h and patted dry; added the diluted NT monoclonal antibody, 100 μL/well at 37° C. for 30 min (partial supernatant for 1 h); washed 5 times with washing solution and patted dry; added rabbit anti-goat IgG-HRP […] per well at 37° C. for 30 min; washed 5 times with washing solution and patted dry; added color developing solution A (50 μL/well), added color developing solution B (50 μL/well) for 10 min; added stop solution, 50 μL/well; followed by reading the OD value at 450 nm (reference 630 nm) on the microplate reader.
Data from the enzyme immunoassay indirect method were analyzed in the same way as the activity identification, with four gradients of 3 μg/ml, 1.5 μg/ml, 0.75 μg/ml and 0.375 μg/ml for coating; the antibody was diluted from 1000 ng/ml by 2 times to 0.977 ng/ml for loading sample. OD values corresponding to different antibody concentrations at different coating concentrations were obtained. Under the same coating concentration, data were plotted logarithmically with the antibody concentration as the abscissa and the OD value as the ordinate.
On to B1, for which the Kd (in general, the concentration at which binding is half-saturated) is 0.944 nM.

Turning to B2, the Kd was 4.78 nM.

For B3, the Kd is 2.53 nM.

For B4, the Kd was 17.8 nM.

Turning to B5, the Kd was 3.48 nM.

Take B6: the Kd was 2.61 nM.

With B7, the Kd is 2.47 nM.

On to B8, for which the Kd was 1.17 nM.

On to B9, for which the Kd is 2.25 nM.

In the case of B10, the Kd is 1.51 nM.

In the case of B11, the Kd was 2.07 nM.

As for B12, the Kd was 3.27 nM.

Turning to B13, the Kd is 2.53 nM.

B14: the Kd is 0.875 nM.

As for B15, the Kd is 2.75 nM.
